Changes are numbered by the printed parent chain. Where two headings read alike, the source gives them in different places.

The target in assay [1] is T1, human BCMA protein (human, UniProt Q02223 1-54, limits assumed).
T1 construct: also called hBCMA; Antigen BCMA
T1 sequence (looked up): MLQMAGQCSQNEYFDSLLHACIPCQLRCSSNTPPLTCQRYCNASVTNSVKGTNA
In words: SPR (Biacore T200), antibody captured by anti-hIgG, human BCMA as analyte, 1:1 model. How it is done: The affinity of the test antibody for human BCMA protein was determined by Biacore T200 (GE) as follows:
(§1) The response signals were detected in real time using Biacore software, and association and dissociation curves were obtained. The buffer used in the experiment was Biacore universal buffer (137 mM NaCl, 2.7 mM KCl, 10 mM Na₂HPO₄.12H₂O, 1.8 mM KH₂PO₄, 0.05% surfactant P-20 (w/v), pH 7.4). […] The flow rate in the flow cell was at 50 μL/min, the association was performed for 240 s, the dissociation was performed for 1400 s, the regeneration was performed using 3 M MgCl₂ (GE) for 60 s, and the baseline was stable. Results were obtained by calculation according to the affinity and kinetics 1:1 binding mode in biacore evaluation software.

Assay [2] has as its target T2, human BCMA on cells (human, UniProt Q02223 1-184).
T2 sequence (looked up): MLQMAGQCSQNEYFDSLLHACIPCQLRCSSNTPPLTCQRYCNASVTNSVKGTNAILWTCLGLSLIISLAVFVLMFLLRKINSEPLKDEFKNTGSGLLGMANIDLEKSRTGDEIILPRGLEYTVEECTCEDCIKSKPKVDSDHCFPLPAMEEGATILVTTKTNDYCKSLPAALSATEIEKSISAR
As to the kind of experiment: cell-based or functional assay.

Assay [3] deals with T2, human BCMA on cells. As to the kind of experiment: cell-based or functional assay. The source holds these as a separate data set.
Assay [4] concerns the target T3, human CD3e (Acro, Cat. No. CDE-H5223) (human, UniProt P07766 23-126).
T3 construct: also called human CD3e protein; hCD3e
As to the kind of experiment: SPR (Biacore T200), antibody captured by anti-hIgG, human CD3e as analyte, 1:1 model. Here is the method:
(§2) The affinity of the test antibody for human CD3e or human BCMA protein was determined by Biacore T200 (GE) as follows:
as §1, with “KH₂PO₄.” for “KH₂PO₄,”, “MgCl” for “MgCl₂”

The target in assay [5] is T1, human BCMA protein. As to the kind of experiment: SPR (Biacore T200), antibody captured by anti-hIgG, human BCMA as analyte, 1:1 model. How it is done:
as §2
as §1, with “KH₂PO₄.” for “KH₂PO₄,”, “MgCl” for “MgCl₂”
This is another data set of the same source.

Assay [6] addresses T2, human BCMA on cells. As to the kind of experiment: flow cytometry, NCI-H929 cells. How it is done:
(§3) NCI-H929 cells (BCMA+++), MM1S cells (BCMA++), and RPMI-8226 cells (BCMA+) in the logarithmic growth phase were taken, adjusted to a cell density of 5×10⁶-10×10⁶ cells/mL using RPMI medium (Hyclon, catalog No. SH30809.01) containing 2% FBS (fetal bovine serum), respectively, and seeded in a 96-well U-bottom cell culture plate (Costar, catalog No. 3799) at 50 μL per well. The test antibodies at different concentrations were prepared using the medium described above. […] The antibodies at different concentrations were added to the 96-well cell culture plate described above at 50 μL per well, mixed well and incubated at 4° C. for 1 h. The cells were washed with pre-cooled running buffer (MACS, catalog No. 130-091-221), and the supernatant was discarded. Pre-cooled fluorescent labeled goat anti-human IgG antibodies (Jackson, catalog No. 109-116-170) were added, and the cells were resuspended at 100 μL per well, mixed well and incubated at 4° C. for 30 min. After washing, 100 μL of pre-cooled running buffer was added to resuspend the cells. The cells were mixed well and collected while flowing on an Attune™ NxT flow cytometer, and the data was analyzed using Graphpad Prism5 software. FIGS. 7-9 and Table 11 show the binding ability of the anti-BCMA/anti-CD3 multispecific antibodies to NCI-H929 cells (BCMA+++), MM1S cells (BCMA++), and RPMI-8226 cells (BCMA+).

The target in the next assay is T4, T cell surface CD3 (human, UniProt P07766 23-207).
T4 construct: whole, on cells; also called CD3^+ T cells
In words: flow cytometry, human CD3+ T cells. How it is done:
Human PBMC cells were sorted for CD3⁺ T cells using CD3 magnetic beads (Miltenyi, catalog No. 130-097-043): the cryopreserved PBMCs were thawed, and washed by centrifugation twice for counting. Running buffer (MACS, catalog No. 130-091-221) was added in a cell-to-buffer ratio of 10⁷:80 μL, CD3 beads were added in a cell-to-bead ratio of 10⁷:20 μL, and the mixture was mixed well and incubated at 4° C. for 15 min. The cells were washed with buffer in a cell-to-buffer ratio of 10⁷:1-2 mL. After centrifugation, the supernatant was discarded, and 500 μL of buffer was added to resuspend the cell pellet. The LS sorting column (Miltenyi, catalog No. 130-042-401) was placed on the MidiMACS Starting Kit (LS) magnetic rack (Miltenyi, catalog No. 130-091-051). After rinsing, the cell suspension was added and washed thrice. The LS sorting column was removed from the magnetic rack and placed on a clean centrifuge tube and 5 mL buffer was added to collect the sorted CD3⁺ T cells. After counting, the CD3⁺ T cells were adjusted to a cell density of 5×10⁶-10×10⁶ cells/mL using RPMI medium (Hyclone, catalog No. SH30809.01) containing 2% FBS (fetal bovine serum) and seeded in a 96-well U-bottom cell culture plate (Costar, catalog No. 3799) at 50 μL per well. The test antibodies at different concentrations were prepared using the medium described above. […] The antibodies at different concentrations were added to the 96-well cell culture plate described above at 50 μL per well, mixed well and incubated at 4° C. for 1 h. The cells were washed with pre-cooled running buffer (MACS, catalog No. 130-091-221), and the supernatant was discarded. Pre-cooled fluorescent labeled goat anti-human IgG antibodies (Jackson, catalog No. 109-116-170) were added, and the cells were resuspended at 100 μL per well, mixed well and incubated at 4° C. for 30 min. After washing, 100 μL of pre-cooled running buffer was added to resuspend the cells.

In assay [7] the target is T2, human BCMA on cells. As to the kind of experiment: flow cytometry, MM1S cells. Here is the method:
as §3

In assay [8] the target is T2, human BCMA on cells. In words: cell-based or functional assay. This is another data set of the same source.

T4 sequence (P07766 23-207): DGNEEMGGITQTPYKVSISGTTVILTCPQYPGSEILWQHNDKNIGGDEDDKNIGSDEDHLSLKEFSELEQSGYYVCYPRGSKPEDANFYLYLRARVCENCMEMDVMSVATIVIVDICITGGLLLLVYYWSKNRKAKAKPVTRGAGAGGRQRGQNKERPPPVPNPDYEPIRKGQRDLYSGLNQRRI
T3 sequence (P07766 23-126 limits assumed): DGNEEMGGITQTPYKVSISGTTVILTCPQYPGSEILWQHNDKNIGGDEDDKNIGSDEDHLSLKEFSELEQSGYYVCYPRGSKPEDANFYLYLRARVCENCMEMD

B1: 1A10-V1 (antibody, human IgG1, V domains shown)
VH: QVQLVESGGGLVQPGGSLRLSCAASGYSSNVACMAWYRQAPGKGLEWVATIVADFGTTNYAASVKGRFTISQDNSKNTVYLQMNSLRAEDTAVYYCAATQRGGIDWCDEINYWGQGTLVTVSS
notes: Humanized VHH fused to human IgG1 Fc; also called humanized antibody 1A10-V1
As to B1, binding with human BCMA protein [1] was characterised by a dissociation constant (Kd) of 0.337 nM.

B2: 1A10-V2 (antibody, human IgG1, V domains shown)
VH: B1 VH with G44E, L45R, A49S
notes: Humanized VHH fused to human IgG1 Fc; also called humanized antibody 1A10-V2
B2 showed a dissociation constant (Kd) with human BCMA protein [1] of 1.31 nM.

B3: anti-BCMA/anti-CD3 multispecific antibody PC1 (bispecific antibody, human IgG1)
chain 1: QVQLVESGGGLVQPGGSLRLSCAASGYSSNVACMAWYRQAPGKGLEWVATIVADFGTTNYAASVKGRFTISQDNSKNTVYLQMNSLRAEDTAVYYCAATQRGGIDWCDEINYWGQGTLVTVSSGGGGSGGGGSQVQLVESGGGLVQPGGSLRLSCAASGFTFNSACMGWFRQAPGKGREGVSRIETGYGGTVYADSVKGRFTISRDNSKNTVYLQMNSLRAEDTAVYYCAAKRSWCTPTWWHELDYNYWGQGTQVTVSSGEPKSSDKTHTCPPCPAPEAAGGPSVFLFPPKPKDTLMISRTPEVTCVVVDVSHEDPEVKFNWYVDGVEVHNAKTKPREEQYNSTYRVVSVLTVLHQDWLNGKEYKCKVSNKALAAPIEKTISKAKGQPREPQVCTLPPSREEMTKNQVSLSCAVKGFYPSDIAVEWESNGQPENNYKTTPPVLDSDGSFFLVSKLTVDKSRWQQGNVFSCSVMHEALHNHYTQKSLSLSPGK
chain 2: ELVVTQEPSLTTSPGGTVTLTCRSSTGAVTTSNYANWVQQKPGQAPRGLIGGTNKRAPGTPARFSGSLLGGKAALTITGVQPEDEAEYYCALWYSNLWVFGGGTKLTVLGGGGSGGGGSGGGGSEVQLVESGGGLVQPGGSLRLSCAASGFTFNTYAMNWVRQAPGKGLEWVARIRSKYNNYATYYADSVKDRFTISRDDSKNTAYLQMNNLKTEDTAMYYCVRHGNFGNSYVSWFAYWGQGTLVTVSSGEPKSSDKTHTCPPCPAPEAAGGPSVFLFPPKPKDTLMISRTPEVTCVVVDVSHEDPEVKFNWYVDGVEVHNAKTKPREEQYNSTYRVVSVLTVLHQDWLNGKEYKCKVSNKALAAPIEKTISKAKGQPREPQVYTLPPCREEMTKNQVSLWCLVKGFYPSDIAVEWESNGQPENNYKTTPPVLDSDGSFFLYSKLTVDKSRWQQGNVFSCSVMHEALHNRFTQKSLSLSPGK
notes: Trivalent; two chains; human IgG1 knobs-into-holes Fc
With B3, in the assay with human BCMA on cells [2], the “Lysis EC50, MM1S cells with human PBMCs (E:T 10:1, 24 h, LDH release)” value is 0.0084 nM and the “Maximum lysis rate, MM1S cells with human PBMCs” value worked out at 26%. In addition, in the assay with human BCMA on cells [3], the “Lysis EC50, RPMI-8226 cells with human PBMCs (E:T 10:1, 24 h, LDH release)” value is 0.007 nM and the “Maximum lysis rate, RPMI-8226 cells with human PBMCs” value was found to be 29%. For the same molecule, the Kd in assay [4] amounted to 1.43 nM. The same molecule came in with a Kd with human BCMA protein [5] of 0.0396 nM. In the assay with human BCMA on cells [6], the EC50 turned out to be 1.26 nM and the “Top(MFI)” value stood at 226000 MFI. Moreover, in the assay with T cell surface CD3, the EC50 was 485 nM and the “Top(MFI)” value was 92900 MFI. Further, in the assay with human BCMA on cells [7], the EC50 amounted to 0.35 nM and the “Top(MFI)” value came to 100000 MFI. In the assay with human BCMA on cells [8], the “Lysis EC50, NCI-H929 cells with human PBMCs (E:T 10:1, 24 h, LDH release)” value was 0.0674 nM and the “Maximum lysis rate, NCI-H929 cells with human PBMCs” value amounted to 36%.

B4: anti-BCMA/anti-CD3 bispecific control antibody Benchmark (bispecific antibody, human IgG1, kappa, L234A L235A)
heavy 1: not shown
light 1: not shown
heavy 2: not shown
light 2: EVQLLESGGGLVQPGGSLRLSCAASGFTFSTYAMNWVRQAPGKGLEWVSRIRSKYNNYATYYADSVKGRFTISRDDSKNTLYLQMNSLRAEDTAVYYCVRHGNFGNSYVSWFAYWGQGTLVTVSSASVAAPSVFIFPPSDEQLKSGTASVVCLLNNFYPREAKVQWKVDNALQSGNSQESVTEQDSKDSTYSLSSTLTLSKADYEKHKVYACEVTHQGLSSPVTKSFNRGEC
notes: Control from Celgene (US20190263920A1): two anti-BCMA Fabs and one anti-CD3 Fab; also called Celgene BM; celgene BM
Take B4: in the assay with human BCMA on cells [2], the “Lysis EC50, MM1S cells with human PBMCs (E:T 10:1, 24 h, LDH release)” value was 0.0847 nM and the “Maximum lysis rate, MM1S cells with human PBMCs” value turned out to be 23%. Also, in the assay with human BCMA on cells [3], the “Lysis EC50, RPMI-8226 cells with human PBMCs (E:T 10:1, 24 h, LDH release)” value is 0.271 nM and the “Maximum lysis rate, RPMI-8226 cells with human PBMCs” value amounted to 29%. Besides, the Kd in assay [4] was 1.6 nM. This molecule registered a Kd with human BCMA protein [5] of 0.821 nM. For the same molecule, in the assay with human BCMA on cells [6], the midpoint of the response, the EC50, lay at 0.821 nM and the “Top(MFI)” value was determined as 166000 MFI. In addition, in the assay with T cell surface CD3, a half-maximal effect (EC50) was put at 18.1 nM and the “Top(MFI)” value worked out at 93500 MFI. Also, in the assay with human BCMA on cells [7], the response was half-maximal at 0.381 nM (EC50) and the “Top(MFI)” value is 71400 MFI. Moreover, in the assay with human BCMA on cells [8], the “Lysis EC50, NCI-H929 cells with human PBMCs (E:T 10:1, 24 h, LDH release)” value came to 0.0444 nM and the “Maximum lysis rate, NCI-H929 cells with human PBMCs” value stood at 41%.

B5: 1A11-V1 (antibody, human IgG1, V domains shown)
VH: QVQLVESGGGLVQPGGSLRLSCAASGFTFNSACMGWFRQAPGKGREGVSRIETGYGGTVYADSVKGRFTISRDNSKNTVYLQMNSLRAEDTAVYYCAAKRSWCTPTWWHELDYNYWGQGTQVTVSS
notes: Humanized VHH fused to human IgG1 Fc; also called humanized antibody 1A11-V1
In turn, B5 showed a Kd with human BCMA protein [1] of 5.05 nM.

B6: 1A11-V2 (antibody, human IgG1, V domains shown)
VH: B5 VH with G44E, R87K
notes: Humanized VHH fused to human IgG1 Fc; also called humanized antibody 1A11-V2
In turn, B6 registered a Kd in the assay with human BCMA protein [1] of 4.37 nM.
